The record followed here is article doi:10.1101/2021.05.25.445681 (bioRxiv, 2021).

This data set deals with the molecule itself. Put plainly: cryo-EM structure.

B1: E. coli MsbA (natural protein)
chain: MHNDKDLSTWQTFRRLWPTIAPFKAGLIVAGVALILNAASDTFMLSLLKPLLDDGFGKTDRSVLVWMPLVVIGLMILRGITSYVSSYCISWVSGKVVMTMRRRLFGHMMGMPVSFFDKQSTGTLLSRITYDSEQVASSSSGALITVVREGASIIGLFIMMFYYSWQLSIILIVLAPIVSIAIRVVSKRFRNISKNMQNTMGQVTTSAEQMLKGHKEVLIFGGQEVETKRFDKVSNRMRLQGMKMVSASSISDPIIQLIASLALAFVLYAASFPSVMDSLTAGTITVVFSSMIALMRPLKSLTNVNAQFQRGMAACQTLFTILDSEQEKDEGKRVIERATGDVEFRNVTFTYPGRDVPALRNINLKIPAGKTVALVGRSGSGKSTIASLITRFYDIDEGEILMDGHDLREYTLASLRNQVALVSQNVHLFNDTVANNIAYARTEQYSREQIEEAARMAYAMDFINKMDNGLDTVIGENGVLLSGGQRQRIAIARALLRDSPILILDEATSALDTESERAIQAALDELQKNRTSLVIAHRLSTIEKADEIVVVEDGVIVERGTHNDLLEHRGVYAQLHKMQFGQ
For B1, the binding result was “binds”.
